The source of these data is US20100279930A1 (published 2010).

Substitutions are numbered along the chain they refer to. No end group written: not given here.

A word on the IC50: it is the concentration that gives 50% inhibition. Read a low IC50 as inhibition by little substance.

First the molecules themselves.
B1: 7123 (peptide)
chain: PAPLEPVYPGDNATPEEINHYYSALRRYINMLTRPRY
B2: compound of SEQ ID NO:171 (code 7218) (peptide)
peptide: AAPLEPVYPGDNATPEQMAQYAADLRRYINKLTRPRY
modifications: ends and bridges not checked
B3: 7115 (peptide)
chain: APLEPVYPGDNATPEQMAQYAADLRRYINCLTRPRY
B4: 7112 (peptide)
chain: AAPLEPVYPGDNATPEELVKYYSALRRYINLLTRPRY
B5: 7104 (peptide)
chain: B4 chain with A1P, R27H, L31M
B6: 7148 (peptide)
chain: AAPLEPFYPGDDATPQQIAHYAAELRRYINTLTRPRY
B7: 7122 (peptide)
chain: APLEPVYPGDNATPEEINHYYSALRRYINMLTRPRY
B8: 7111 (peptide)
chain: B7 chain with I17L, N18V, H19K, M30L
B9: 7125 (peptide)
chain: B7 chain with N18V, Y21F, S22I, A23E
B10: 7135 (peptide)
chain: APLEPVYPGDDATPQQIAHYYSELRRYINMLTRPRY
B11: 4060130 (peptide)
chain: GAPLEPEYPGDNATPEQKARYAAALRRYINHLTRPRY
B12: 4059936 (peptide)
chain: PAPLEPHYPGDNATPEEMAKYASELRRYINKLTRPRY
B13: 4059965 (peptide)
chain: B12 chain with P1A, K20R, A22Y
B14: 4059955 (peptide)
chain: B12 chain with P1A, E17Q, K20R, A22Y
B15: 4059938 (peptide)
chain: B12 chain with Y8A, S23A
B16: 4059971 (peptide)
chain: B12 chain with P1D, H7E, N12D, S23A
B17: 4059934 (peptide)
chain: B12 chain with S23T
B18: 4059943 (peptide)
chain: B12 chain with S23A, L32I
B19: 4059966 (peptide)
chain: B12 chain with E17Q, M18L, K20R, A22Y
B20: 4060148 (peptide)
chain: B12 chain with P1D, H7V, E17Q, A22Y
B21: 4059976 (peptide)
chain: B2 peptide with V7E, Y8A, Q20K, D24A
B22: 4060202 (peptide)
chain: B11 chain with K18M, A24S, H31K
B23: 4060146 (peptide)
chain: B2 peptide with V7E, Q20K, D24S
B24: 4060135 (peptide)
chain: B2 peptide with Q17E, M18L, Q20R, D24E
B25: 4060207 (peptide)
chain: GAPLEPTYPGDNATPEQLAKYAAELRRYINKLTRPRY
B26: 4060274 (peptide)
chain: B11 chain with R20K
B27: 4060139 (peptide)
chain: B12 chain with M18L, K20R, S23A
B28: 4060273 (peptide)
chain: B25 chain with G1P, A22Y, A23S, K31H
B29: 4059977 (peptide)
chain: B11 chain with Y8A, K18M, R20K, H31K
B30: 4059864 (peptide)
chain: B25 chain with G1P, E5K
B31: 4059861 (peptide)
chain: B25 chain with G1H, E5K, T7K, Y8A
B32: 4060210 (peptide)
chain: B25 chain with N12D
B33: 4060204 (peptide)
chain: B25 chain with L18K
B34: 4060144 (peptide)
chain: B25 chain with T7R, Q17E, L18M
B35: 4059947 (peptide)
chain: B12 chain with P1G, S23A, L32V
B36: 4059967 (peptide)
chain: B25 chain with T7H, K20R, A22Y, A23S
B37: 4060134 (peptide)
chain: B25 chain with T7V, Q17E, K20R
B38: 4059862 (peptide)
chain: B25 chain with G1P, E5K, T7K, Y8A
B39: 4059856 (peptide)
chain: B25 chain with G1Y, E5K, T7E
B40: 4059863 (peptide)
chain: B25 chain with G1H, E5K
B41: 4060145 (peptide)
chain: B12 chain with P1D, H7R, S23A
B42: 4060141 (peptide)
chain: B25 chain with G1P, Q17E, K20R
B43: 4060143 (peptide)
chain: B12 chain with H7R, S23A
B44: 4059859 (peptide)
chain: B25 chain with G1P, E5K, T7E
B45: 4059935 (peptide)
chain: B12 chain with P1G
B46: 4060208 (peptide)
chain: B25 chain with G1P, N12D
B47: 4060142 (peptide)
chain: B25 chain with T7K, N12D, Q17E
B48: 4060203 (peptide)
chain: B25 chain with G1P, L18K
B49: 4060272 (peptide)
chain: B25 chain with A22Y, A23S, K31H
B50: 4059932 (peptide)
chain: B12 chain with P1G, S23T
B51: 4060147 (peptide)
chain: B25 chain with T7V, L18M, A22Y, A23S
B52: 4059942 (peptide)
chain: B12 chain with P1G, S23A, L32I
B53: 4060212 (peptide)
chain: B25 chain with G1A, K20R, A22Y, A23S
B54: 4060214 (peptide)
chain: AAPLEPVYPGDDATPQQMARYYSELRRYINKLTRPRY
B55: 4059974 (peptide)
chain: PAPLEPEAPGDNATPEQMAKYAAALRRYINKLTRPRY

For one assay, the target named is T1, human Y4 receptor (human, UniProt P50391 1-375). Nature of the assay: 125I-PP displacement.
T1 sequence (P50391 whole entry): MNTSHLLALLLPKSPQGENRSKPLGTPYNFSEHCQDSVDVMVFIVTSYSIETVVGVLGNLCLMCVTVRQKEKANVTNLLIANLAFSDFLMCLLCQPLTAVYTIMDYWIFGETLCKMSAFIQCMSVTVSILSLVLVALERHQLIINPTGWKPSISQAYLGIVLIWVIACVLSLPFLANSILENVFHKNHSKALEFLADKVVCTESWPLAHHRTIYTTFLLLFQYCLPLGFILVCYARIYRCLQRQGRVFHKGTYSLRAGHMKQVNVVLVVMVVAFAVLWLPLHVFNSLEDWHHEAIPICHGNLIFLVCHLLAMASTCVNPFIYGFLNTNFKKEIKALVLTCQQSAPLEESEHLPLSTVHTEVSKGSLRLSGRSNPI
For the molecule B1, the IC50 stood at 0.09 nM.

In the case of B2, the IC50 was found to be 0.15 nM.

Molecule B3 came in with an IC50 of 0.229 nM.

For the molecule B4, the IC50 turned out to be 0.095 nM.

In turn, B5 showed an IC50 of 0.225 nM.

In the case of B6, the IC50 is 0.16 nM.

The molecule B7 gave an IC50 of 0.118 nM.

B8 showed an IC50 of 0.077 nM.

B9 displayed an IC50 of 0.1 nM.

Take B10: the IC50 was found to be 0.18 nM.

For a further assay, the target named is T1, human Y4 receptor. Briefly: 125I-PP displacement. This is another data set of the same source.
In turn, B11 showed an IC50 of 0.072 nM.

The molecule B12 gave a concentration for half-maximal inhibition (IC50) of 0.118 nM.

On to B13, for which the IC50 turned out to be 0.083 nM.

B14 displayed an IC50 of 0.044 nM.

The molecule B15 had an IC50 of 0.128 nM.

Molecule B16 yielded an IC50 of 0.228 nM.

B17: the IC50 was 0.108 nM.

As to B18, the IC50 turned out to be 0.077 nM.

Molecule B19 showed an IC50 of 0.053 nM.

For B20, the IC50 stood at 0.095 nM.

B21 had an IC50 of 0.122 nM.

In the case of B22, the IC50 stood at 0.061 nM.

For B23, the IC50 turned out to be 0.106 nM.

In the case of B24, the IC50 was 0.197 nM.

In the case of B25, the 50% inhibitory concentration (IC50) was found to be 0.09 nM.

B26 gave an IC50 of 0.128 nM.

B27: the IC50 amounted to 0.121 nM.

With B28, the IC50 worked out at 0.118 nM.

Consider B29, for which the IC50 was 0.095 nM.

On to B30, for which the IC50 came out at 0.07 nM.

B31 yielded an IC50 of 0.1 nM.

As for B32, the IC50 is 0.106 nM.

B33 displayed an IC50 of 0.073 nM.

B34: the IC50 came out at 0.101 nM.

For the molecule B35, the IC50 was 0.066 nM.

As for B36, the half-inhibitory concentration (IC50) came to 0.064 nM.

On to B37, for which the IC50 was found to be 0.143 nM.

Take B38: the IC50 was 0.071 nM.

Regarding B39, the IC50 is 0.08 nM.

With B40, the half-inhibitory concentration (IC50) stood at 0.068 nM.

As to B41, the IC50 was 0.173 nM.

Turning to B42, the IC50 worked out at 0.151 nM.

B43: the IC50 worked out at 0.095 nM.

In turn, B44 gave an IC50 of 0.108 nM.

In turn, B45 returned an IC50 of 0.081 nM.

B46 yielded an IC50 of 0.126 nM.

On to B47, for which the IC50 amounted to 0.143 nM.

In turn, B48 displayed an IC50 of 0.067 nM.

As to B49, the IC50 was 0.095 nM.

B50 displayed a 50% inhibitory concentration (IC50) of 0.085 nM.

For the molecule B51, the IC50 is 0.077 nM.

The molecule B52 displayed an IC50 of 0.073 nM.

B53 gave an IC50 of 0.067 nM.

In turn, B54 yielded an IC50 of 0.035 nM.

The molecule B55 displayed an IC50 of 0.097 nM.
